The chains are these.
B1: Hairpin Ribozyme (parent)
chain: GUCCUCUUUCACGUGCGCGUGAAAGAGAGAAGUGAACCAGAGAAACACACGUUGUGGUAUAUUACCUGGUA

This data set covers variants of B1. Briefly: self-cleavage, relative activity (ratio to wild type); higher = more cleavage; co-transcriptional.
As to A23G G27A, the self-cleavage is 0.496.

Turning to A23U C50A, the self-cleavage amounted to 0.277.

On to A23U C50G, for which the self-cleavage was determined as 0.239.

On to A23C U62C, for which the self-cleavage was 0.206.

As for A23C U58C, the self-cleavage stood at 0.821.

Turning to A23C U58A, the self-cleavage was found to be 0.49.

A23C A30U: the self-cleavage came out at 0.118.

For A23C A30G, the self-cleavage amounted to 0.184.

Consider A23C C38G, for which the self-cleavage came to 0.0489.

Regarding A23G A30C, the self-cleavage amounted to 0.115.

Take A23G A30U: the self-cleavage is 0.181.

Turning to A23C U60C, the self-cleavage stood at 0.921.

Take A23C U60A: the self-cleavage was 0.744.

For the variant A23U C65A, the self-cleavage came to 0.752.

As for A23U C65U, the self-cleavage stood at 0.402.

Consider A22U U62G, for which the self-cleavage stood at 0.147.

As for A23G A61G, the self-cleavage is 0.136.

Regarding A23G A61C, the self-cleavage was found to be 0.266.

For A23U G42C, the self-cleavage came to 0.259.

With A23U G42U, the self-cleavage worked out at 0.246.

As for A23G A31C, the self-cleavage stood at 0.194.

Turning to A23C U70A, the self-cleavage amounted to 0.872.

For A23C U70G, the self-cleavage is 0.685.

For the variant A23C G54A, the self-cleavage was 0.416.

For A23C G54U, the self-cleavage was determined as 0.7.

Take A23G C46U: the self-cleavage worked out at 0.0862.

Consider A22U U33G, for which the self-cleavage is 0.174.

For A23G G42A, the self-cleavage is 0.192.

As for A23G G42U, the self-cleavage turned out to be 0.359.

Regarding A23U G68U, the self-cleavage came to 0.197.

Consider A23C A26U, for which the self-cleavage worked out at 0.499.

Take A23C A26G: the self-cleavage was 1.01.

Turning to A22U U60A, the self-cleavage worked out at 0.77.

A23G U70G: the self-cleavage stood at 0.759.

On to A23G A44G, for which the self-cleavage is 0.126.

As for A23G U53A, the self-cleavage was determined as 0.727.

With A23U G29C, the self-cleavage came out at 0.145.

In the case of A23G G40U, the self-cleavage is 0.278.

Consider A23G G40A, for which the self-cleavage came to 0.234.

Consider A23G A36U, for which the self-cleavage was found to be 0.514.

As for A23G A36G, the self-cleavage was found to be 0.933.

Regarding A22U U67A, the self-cleavage was found to be 0.188.

Turning to A22U U67C, the self-cleavage was determined as 0.168.

On to A23C U63C, for which the self-cleavage is 0.136.

For the variant A23C A44C, the self-cleavage stood at 0.251.

For A23U C37G, the self-cleavage is 0.438.

Consider A23C A49U, for which the self-cleavage amounted to 0.257.

For A23C A49G, the self-cleavage came out at 0.393.

Turning to A23G U58G, the self-cleavage was 0.657.

Consider A23G A28C, for which the self-cleavage was 0.641.

A23U G57A: the self-cleavage worked out at 0.116.

For the variant A23C G29U, the self-cleavage was determined as 0.0906.

Consider A23C G29A, for which the self-cleavage was 0.177.

Take A23C C37U: the self-cleavage was 0.444.

As to A23U U58G, the self-cleavage is 0.663.

Regarding A23U U58C, the self-cleavage stood at 1.05.

For A23G C50A, the self-cleavage is 0.218.

For A22U U52A, the self-cleavage came out at 0.836.

Turning to A23G A35G, the self-cleavage was found to be 0.939.

For the variant A23G G57C, the self-cleavage turned out to be 0.177.

Consider A23G G57A, for which the self-cleavage was found to be 0.19.

For the variant A23G C66G, the self-cleavage stood at 0.265.

Take A23G C66A: the self-cleavage was determined as 0.246.

A22U U55A: the self-cleavage was found to be 0.255.

For A22U U55C, the self-cleavage was 0.178.

For A23U C46U, the self-cleavage came out at 0.131.

For A23G G34A, the self-cleavage came to 1.12.

For the variant A22U U58C, the self-cleavage was determined as 1.04.

On to A23C G40U, for which the self-cleavage amounted to 0.175.

With A23C G40A, the self-cleavage amounted to 0.342.

For A23U A41U, the self-cleavage came out at 1.07.

As to A23U G54U, the self-cleavage was 0.538.

In the case of A23U G54C, the self-cleavage turned out to be 0.551.

As for A23U U63G, the self-cleavage turned out to be 0.199.

With A23C A64C, the self-cleavage was determined as 0.0802.

With A23C A64U, the self-cleavage worked out at 0.118.

On to A23G A64G, for which the self-cleavage came to 0.43.

Take A23G A64U: the self-cleavage was found to be 0.125.

On to A22U G69C, for which the self-cleavage was determined as 0.219.

As for A23C A47U, the self-cleavage amounted to 0.0967.

With A23C A47C, the self-cleavage turned out to be 0.417.

For the variant A23C A61U, the self-cleavage was determined as 0.204.

For the variant A23C A61G, the self-cleavage amounted to 0.161.

As for A23U A26C, the self-cleavage amounted to 0.545.

With A23U A26U, the self-cleavage is 0.606.

As to A23U G51U, the self-cleavage was 0.893.

As to A23U G34C, the self-cleavage came to 1.12.

As for A23G U63A, the self-cleavage turned out to be 0.113.

Consider A23G A49U, for which the self-cleavage worked out at 0.227.

As for A23C G69U, the self-cleavage amounted to 0.297.

Consider A23G C48G, for which the self-cleavage was determined as 0.159.

Regarding A23G C48A, the self-cleavage is 0.123.

Regarding A23C A45U, the self-cleavage is 0.207.

Turning to A23G A59U, the self-cleavage was found to be 0.0772.

As to A23G C38U, the self-cleavage amounted to 0.43.

As to A23G C38A, the self-cleavage worked out at 0.239.

Consider A23U A35U, for which the self-cleavage was 0.754.

A23U A59G: the self-cleavage is 0.183.

With A23U G40A, the self-cleavage came to 0.309.

For the variant A23U A49G, the self-cleavage turned out to be 0.356.

In the case of A23U G69U, the self-cleavage worked out at 0.247.

Consider A23C G51U, for which the self-cleavage was found to be 0.993.

With A23C C46U, the self-cleavage was 0.0785.

With A22U U63C, the self-cleavage came to 0.0646.

Take A22U U63G: the self-cleavage was 0.203.

For the variant A23C G32C, the self-cleavage turned out to be 0.0217.

Regarding A23C G32A, the self-cleavage was determined as 0.102.

In the case of A23C G32U, the self-cleavage came out at 0.15.

For the variant A23C G27U, the self-cleavage was 0.253.

Consider A23C A24U, for which the self-cleavage came out at 0.626.

With A23U G27A, the self-cleavage was 0.394.

As to A23C A41G, the self-cleavage worked out at 0.928.

As to A23G A71C, the self-cleavage was 1.37.

As to A22U G68C, the self-cleavage came out at 0.252.

Turning to A23U A28C, the self-cleavage is 0.613.

With A23U A28U, the self-cleavage is 0.674.

Take A22U U53C: the self-cleavage worked out at 0.897.

A22U U53A: the self-cleavage is 0.859.

A23U U70A: the self-cleavage was determined as 0.729.

As to A23U U33G, the self-cleavage worked out at 0.158.

With A23U G25C, the self-cleavage stood at 0.132.

On to A23U G25A, for which the self-cleavage worked out at 0.186.

As for A23U G25U, the self-cleavage is 0.216.

With A23G U33G, the self-cleavage worked out at 0.125.

On to A23G U33A, for which the self-cleavage is 0.131.

A23G U67C: the self-cleavage turned out to be 0.218.

Turning to A23G U67A, the self-cleavage was determined as 0.105.

Take A23G G69U: the self-cleavage stood at 0.148.

Regarding A23U A30C, the self-cleavage stood at 0.201.

As for A23U A30G, the self-cleavage was 0.228.

Regarding A23U A47G, the self-cleavage came to 0.11.

As for A23U A47U, the self-cleavage amounted to 0.105.

A23C A71C: the self-cleavage came to 1.16.

A23C A71G: the self-cleavage came to 0.936.

With A23U A43U, the self-cleavage was found to be 0.123.

With A23U A39C, the self-cleavage was 0.483.

In the case of A23C G56C, the self-cleavage worked out at 0.191.

Take A23G C65A: the self-cleavage was determined as 0.667.

For A23C G42C, the self-cleavage is 0.422.

On to A23C G42A, for which the self-cleavage came to 0.287.

A23C G42U: the self-cleavage worked out at 0.348.

On to A23C G68U, for which the self-cleavage was found to be 0.262.

For the variant A23C G68C, the self-cleavage turned out to be 0.138.

As for A23U A71U, the self-cleavage stood at 0.66.

Take A23U A31U: the self-cleavage came to 0.166.

Regarding A23G A45C, the self-cleavage was 0.0971.

Turning to A23G A45U, the self-cleavage was found to be 0.143.

On to A23G A45G, for which the self-cleavage was determined as 0.175.

Consider A23U A45G, for which the self-cleavage was 0.129.

For A23G G29U, the self-cleavage came out at 0.164.

Take A23C U55C: the self-cleavage is 0.184.

A23G U62A: the self-cleavage was determined as 0.116.

A23U A44G: the self-cleavage is 0.248.

Consider A23U A44U, for which the self-cleavage turned out to be 0.15.

In the case of A23U C48U, the self-cleavage worked out at 0.118.

On to A23G G32A, for which the self-cleavage came out at 0.0936.

Turning to A23U A24G, the self-cleavage was 0.587.

For A23G U55A, the self-cleavage was 0.273.

Consider A23G U55C, for which the self-cleavage was found to be 0.322.

Take A23C A39C: the self-cleavage came to 0.517.

On to A23U U67C, for which the self-cleavage came out at 0.229.

In the case of A23U U67A, the self-cleavage amounted to 0.237.

In the case of A23U U67G, the self-cleavage came to 0.213.

Regarding A23U G56C, the self-cleavage worked out at 0.174.

In the case of A23G A47C, the self-cleavage stood at 0.3.

Take A23G A47G: the self-cleavage was determined as 0.171.

For the variant A23G A47U, the self-cleavage stood at 0.151.

The record behind these values is the RNAGym collection of RNA variant scans (doi:10.7554/elife.80360).
